# According to EP0636174B1, “HYALURONAN RECEPTOR (RHAMM = RECEPTOR FOR HYLURONAN MEDIATED MOBILITY) AND HYALURONAN BINDING PEPTIDES” (UNIVERSITY OF MANITOBA, priority 1992, dated 1993):
# Columns and labels:
# GST-RHAMM fusion protein = biological target: T1, GST-RHAMM fusion protein (Mus musculus, UniProt Q00547); test: Competition by peptides with binding of biotin-labelled HA to transblotted GST-RHAMM fusion protein; details: biotin-labelled HA pre-incubated for 1 h with 3 mg/ml peptide; Figure 13A
# T1 construct: A complete RHAMM cDNA (1.43 kb) was expressed as a fusion protein with pGEX-2T in E. coli HB101; made in house; host or cells: E. coli HB101 (pGEX-2T)
# T1 sequence (Q00547 319-794): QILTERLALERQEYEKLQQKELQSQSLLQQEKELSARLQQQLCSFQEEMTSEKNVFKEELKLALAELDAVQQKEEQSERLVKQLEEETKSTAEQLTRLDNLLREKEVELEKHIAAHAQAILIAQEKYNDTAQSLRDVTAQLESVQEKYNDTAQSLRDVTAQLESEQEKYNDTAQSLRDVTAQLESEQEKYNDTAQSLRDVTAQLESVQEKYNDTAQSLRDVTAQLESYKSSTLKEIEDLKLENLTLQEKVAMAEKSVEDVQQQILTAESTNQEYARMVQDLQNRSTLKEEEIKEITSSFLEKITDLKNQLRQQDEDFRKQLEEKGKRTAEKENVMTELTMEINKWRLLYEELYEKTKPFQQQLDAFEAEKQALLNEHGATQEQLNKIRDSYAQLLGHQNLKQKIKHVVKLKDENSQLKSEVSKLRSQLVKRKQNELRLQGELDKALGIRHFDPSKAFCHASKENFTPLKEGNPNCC
# Method: Transblotted RHAMM fusion protein was stained with a 1:10,000 dilution of biotin-labelled HA that had been pre-incubated for 1 h with 3 mg/ml BSA (Figure 13A, lane 1) , 3 mg/ml peptide^aa401-411 (lane 2) or 3 mg/ml peptide^aa423-432 (lane 3).
# GST-RHAMM fusion protein was electrophoresed on 10% SDS-PAGE and transblotted onto a nitrocellulose membrane. The membrane was cut into 3 strips and each was stained with 1:3000 diluted biotin-labelled HA in the presence of 3 mg/ml BSA, 3 mg/ml peptide^aa401-411 and 3 mg/ml peptide^aa423-432, respectively. The other steps were the same as described in immunoblots.
# [1] = Hyaluronan-Sepharose affinity chromatography of peptides; type: binding; details: 0.15 M NaCl in PBS; Figure 13B
# Method: To further test the inventor's HA-binding motif model, a number of synthetic peptides were prepared and their HA-binding ability was determined using HA-sepharose. A tyrosine residue was added to one end of each synthetic peptide for convenient spectrophotometric quantitation.
# HA-Sepharose affinity gel was prepared according to the manufacturer's instruction. […]
# Hyaluronan (Sigma) was coupled to AH-Sepharose 4B (Pharmacia) according to the manufacturer's instructions, resulting in an HA-Sepharose gel. Peptides, ordered from Coast Scientific (San Diego) were HPLC purified. These and randomized peptides, whose sequence was generated by computer, were applied to HA-Sepharose in the presence of 0.15 M NaCl in PBS buffer. Unbound peptides were removed by extensive washing with the same buffer. The amounts of peptides applied and that removed were determined by measuring optical density (O.D.) at 214 nm.
substance,measurement,setting,value
K^423L R S Q L V K R K^432 (KLKSQLVKRK) [peptide^aa423-432],blocking of the binding of biotin-labelled HA to expressed GST-RHAMM fusion protein,GST-RHAMM fusion protein,blocked
same,binding to HA-Sepharose,[1],efficiently bound
